IntAct's records for PubMed 23622242

B1: Double-stranded RNA-specific adenosine deaminase (Homo sapiens), P55265-1 (parent)
chain: MNPRQGYSLSGYYTHPFQGYEHRQLRYQQPGPGSSPSSFLLKQIEFLKGQLPEAPVIGKQTPSLPPSLPGLRPRFPVLLASSTRGRQVDIRGVPRGVHLRSQGLQRGFQHPSPRGRSLPQRGVDCLSSHFQELSIYQDQEQRILKFLEELGEGKATTAHDLSGKLGTPKKEINRVLYSLAKKGKLQKEAGTPPLWKIAVSTQAWNQHSGVVRPDGHSQGAPNSDPSLEPEDRNSTSVSEDLLEPFIAVSAQAWNQHSGVVRPDSHSQGSPNSDPGLEPEDSNSTSALEDPLEFLDMAEIKEKICDYLFNVSDSSALNLAKNIGLTKARDINAVLIDMERQGDVYRQGTTPPIWHLTDKKRERMQIKRNTNSVPETAPAAIPETKRNAEFLTCNIPTSNASNNMVTTEKVENGQEPVIKLENRQEARPEPARLKPPVHYNGPSKAGYVDFENGQWATDDIPDDLNSIRAAPGEFRAIMEMPSFYSHGLPRCSPYKKLTECQLKNPISGLLEYAQFASQTCEFNMIEQSGPPHEPRFKFQVVINGREFPPAEAGSKKVAKQDAAMKAMTILLEEAKAKDSGKSEESSHYSTEKESEKTAESQTPTPSATSFFSGKSPVTTLLECMHKLGNSCEFRLLSKEGPAHEPKFQYCVAVGAQTFPSVSAPSKKVAKQMAAEEAMKALHGEATNSMASDNQPEGMISESLDNLESMMPNKVRKIGELVRYLNTNPVGGLLEYARSHGFAAEFKLVDQSGPPHEPKFVYQAKVGGRWFPAVCAHSKKQGKQEAADAALRVLIGENEKAERMGFTEVTPVTGASLRRTMLLLSRSPEAQPKTLPLTGSTFHDQIAMLSHRCFNTLTNSFQPSLLGRKILAAIIMKKDSEDMGVVVSLGTGNRCVKGDSLSLKGETVNDCHAEIISRRGFIRFLYSELMKYNSQTAKDSIFEPAKGGEKLQIKKTVSFHLYISTAPCGDGALFDKSCSDRAMESTESRHYPVFENPKQGKLRTKVENGEGTIPVESSDIVPTWDGIRLGERLRTMSCSDKILRWNVLGLQGALLTHFLQPIYLKSVTLGYLFSQGHLTRAICCRVTRDGSAFEDGLRHPFIVNHPKVGRVSIYDSKRQSGKTKETSVNWCLADGYDLEILDGTRGTVDGPRNELSRVSKKNIFLLFKKLCSFRYRRDLLRLSYGEAKKAARDYETAKNYFKKGLKDMGYGNWISKPQEEKNFYLCPV
partner: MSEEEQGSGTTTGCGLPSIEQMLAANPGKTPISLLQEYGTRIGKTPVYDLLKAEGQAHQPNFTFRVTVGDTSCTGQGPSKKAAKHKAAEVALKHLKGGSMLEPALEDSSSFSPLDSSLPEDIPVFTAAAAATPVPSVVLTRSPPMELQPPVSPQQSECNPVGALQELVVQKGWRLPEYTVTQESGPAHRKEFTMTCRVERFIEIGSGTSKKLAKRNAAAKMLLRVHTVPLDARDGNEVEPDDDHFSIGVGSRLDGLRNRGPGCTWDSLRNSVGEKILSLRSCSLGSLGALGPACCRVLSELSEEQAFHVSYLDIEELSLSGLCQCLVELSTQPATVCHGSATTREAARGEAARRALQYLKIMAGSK

Variants of: B1
Details: with trbp2_human TARBP2, Q15633

| Variant | effect of a mutation on the interaction |
| --- | --- |
| K554E;K555A;K558A;K665E;K666A;K669A;K777E;K778A;K781A | disrupting interaction strength |
